Test results reported in the supplement of paper PMC9732359.
± gives the uncertainty stated by the source.

Experiment: protein stability index of a GFP-peptide fusion (yeast GPS) (PSI 1-4); higher = more stable; sorted into four equal gates, so the index is relative within each strain
How it was run: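 Plasmids isolated from each sorting gate were PCR-amplified and Illumina-sequenced, and barcodes assigned the reads to strains. The gates, four of equal size, were set by GFP/Cherry fluorescence ratio on mid-log cultures in leucine-free medium. These cultures were yeast carrying a pooled library of tiled 17-residue yeast protein peptides fused downstream of GFP on a plasmid that also expresses Cherry. The protein stability index is the sum of every gate's read frequency times its gate number.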

Sequence	protein stability index (doa10∆)	protein stability index (pdr5∆)	protein stability index (san1∆)	protein stability index (ubr1∆)
VEILFEAGASAELDDCR [RPO21]	2.94 ± 0.14	3.44 ± 0.15	2.93 ± 0.074	3.49 ± 0.16
PHGFPSRMTVGKMIELI [RET1]	2.54 ± 0.11	2.56 ± 0.11	2.77 ± 0.084	2.46 ± 0.092
DSEGSIKQTSDESTIKR [ECM29]	3.43 ± 0.11	3.56 ± 0.085	3.43 ± 0.068	3.41 ± 0.063
NYNDLIVNYEDLATTQA [BRN1]	2.98 ± 0.07	3.1 ± 0.087	3.34 ± 0.047	3.27 ± 0.061
IHSKSMSVERGIRWELI [RPT1]	3.06 ± 0.068	3 ± 0.073	2.88 ± 0.071	3.04 ± 0.063
YIKNILEAPVKSIENPT [YLR335W/NUP2]	2.38 ± 0.061	2.33 ± 0.063	2.19 ± 0.084	2.13 ± 0.057
EARFWHLVELLLVFRNA [YDL116W/NUP84]	2.69 ± 0.079	2.1 ± 0.065	2.06 ± 0.085	2.02 ± 0.064
LLTPKSGEPIIAATQDF [RPO31]	2.92 ± 0.16	2.57 ± 0.27		
DLKRFVDESLLSTLPAG [QCR2]	3.02 ± 0.067	3.23 ± 0.085	2.52 ± 0.099	3 ± 0.051
QMIQQRHQQLLRSRLQQ [SNF5]	2.08 ± 0.12	2.14 ± 0.15	2.71 ± 0.15	3.02 ± 0.12
YISKIGEKIDSNKPIFL [SWI1]	3.02 ± 0.084	2.86 ± 0.06	3.01 ± 0.07	3.19 ± 0.09
LEPFLLMLEDTDGDSIL [BRR2]	2.71 ± 0.071	3.06 ± 0.089	3.05 ± 0.073	3.1 ± 0.05
DRFKYRSVDRAGRKFKS [POP4]	3.04 ± 0.2	3.24 ± 0.18	3.52 ± 0.097	3.55 ± 0.16
SFLHVDDKLAYIRVNHA [POP8]	2.67 ± 0.08	2.29 ± 0.068	2.21 ± 0.11	2.56 ± 0.061
DITSDQLLQRLNDMNTE [SMC3]	3.46 ± 0.16		3.24 ± 0.13	3.17 ± 0.12
FTSAPIEVTIGIDQYSF [AAR2]	1.52 ± 0.09	1.93 ± 0.086	1.53 ± 0.12	1.64 ± 0.082
LVQLFLWDSKELEQLVE [RPN3]	2.64 ± 0.13	2.78 ± 0.084	2.08 ± 0.28	2.85 ± 0.083
DEESLVKYMPEQKITEI [RPO21]	3.23 ± 0.12	2.94 ± 0.098	2.99 ± 0.1	3.12 ± 0.056
ALIENWAADSVSSRVRG [FAS1]	3.45 ± 0.12	3.1 ± 0.14	2.84 ± 0.082	3.34 ± 0.075
YENIPIYATFLNESDCL [YDL116W/NUP84]	2.16 ± 0.098	2.54 ± 0.15	2.15 ± 0.15	2.62 ± 0.1
TSADLKSKAEELTQVPS [UBP6]	3.16 ± 0.21	3.22 ± 0.12	2.79 ± 0.13	3.12 ± 0.18
LRLSNFFTIDHFIQKLH [SIR2]	2.32 ± 0.085	2.2 ± 0.07	2.23 ± 0.074	2.05 ± 0.068
LIENCKKRNMPLQSIPE [SWI1]	2.86 ± 0.068	2.86 ± 0.056	3.01 ± 0.051	3.05 ± 0.046
FDPVYTTVITVFLEFSL [YML103C/NUP188]	1.45 ± 0.043	1.69 ± 0.043	1.8 ± 0.072	1.62 ± 0.023
QFLEQGLSIHPTQITQY [SRP68]	2.17 ± 0.058	2.22 ± 0.076	2.27 ± 0.062	2.17 ± 0.067
ILTDLVNYRHFKAMEDV [ITC1]	2.94 ± 0.14	2.98 ± 0.11	3.28 ± 0.068	3.39 ± 0.063
EDVALNEQVKKFFLNNV [NAS6]	2.64 ± 0.047	2.5 ± 0.058	2.44 ± 0.051	2.88 ± 0.042
YDDEQNTSAQHVESDKI [IRR1]	3.25 ± 0.094	3.04 ± 0.053	3.06 ± 0.065	3.27 ± 0.057

Sequence	protein stability index (doa10∆)	protein stability index (pdr5∆)	protein stability index (san1∆)	protein stability index (ubr1∆)
EITDASLNLQYVNYEIS [YML103C/NUP188]	2.62 ± 0.05	2.96 ± 0.067	2.31 ± 0.072	2.79 ± 0.049
QSSFAGTWSAKEAVFKS [FAS2]	2.98 ± 0.078	3.23 ± 0.071	3.18 ± 0.054	2.99 ± 0.058
EPPGSNTSFSFTKPPAN [YOR098C/NUP1]	3.12 ± 0.07	3.21 ± 0.057	3 ± 0.039	2.96 ± 0.053
LRSNKCILYDADESKMA [RET1]		3.07 ± 0.18		
LTLLERKWVIFITKHLP [NUT1]	2.59 ± 0.089	1.68 ± 0.064	1.45 ± 0.13	2.57 ± 0.079
EAQDEASLQQQQQQDLQ [SNF6]	3.27 ± 0.14	3.15 ± 0.1	3.12 ± 0.073	3.2 ± 0.18
GEIEIKPNEEEELGFWD [RPN13]	3.15 ± 0.13	3.19 ± 0.097	3.25 ± 0.074	3.24 ± 0.094
LLTVEEGQLKPGDGSSY [RPC25]	3.43 ± 0.15	3.23 ± 0.24	2.83 ± 0.18	3.27 ± 0.14
SAINQYNRRQDKKNKRL [SNF2]	3.13 ± 0.083	3.34 ± 0.082	3.23 ± 0.074	3.25 ± 0.087
LEFRWLTSSKSVIVSQF [SIN4]	1.73 ± 0.056	1.56 ± 0.059	1.6 ± 0.087	1.42 ± 0.061
ATRHVLMRQGVLGIKVK [RPS3]	2.07 ± 0.096	2.27 ± 0.073	1.93 ± 0.095	2.07 ± 0.056
NAKESNYTDLIWFPEDF [MED1]	3.06 ± 0.094	3.47 ± 0.17	3.17 ± 0.12	2.28 ± 0.052
NENENFGYDIPLLDIVL [YML103C/NUP188]	2.48 ± 0.053	2.81 ± 0.064	2.92 ± 0.049	2.56 ± 0.056
TFLPSYMKFSNKYLELC [RRI2]	2.25 ± 0.052	2.35 ± 0.052	2.37 ± 0.073	2.37 ± 0.04
MAGKVLILTSHNMKAYY [BRR2]	2.1 ± 0.06	2.46 ± 0.058	1.6 ± 0.094	2.4 ± 0.068
IAAERAARKAANKEKRA [RPL7B]	3.27 ± 0.16	3.59 ± 0.21	3.28 ± 0.22	3.3 ± 0.17
FDKVIYHLHPTFANPNR [TAF14]	1.49 ± 0.091	1.44 ± 0.064	1.43 ± 0.22	1.19 ± 0.057
LSESLTKFFDDAKSTPL [RPN9]	3.01 ± 0.07	3.26 ± 0.069	3.18 ± 0.055	3.12 ± 0.068
YGFEDESAPITAEDSWA [RPB2]	3.06 ± 0.058	3.16 ± 0.055	3.35 ± 0.042	3.17 ± 0.053
NESSSNTTVISDKQRRL [DIS3]	3.15 ± 0.086	3.21 ± 0.086	2.98 ± 0.061	3.05 ± 0.058
TNAAFPFHDPEARLFNI [ECM29]	3.04 ± 0.1	2.87 ± 0.12	2.42 ± 0.11	2.38 ± 0.072
TAKLQMRRFILGTTEGD [RPN14]	1.41 ± 0.27	1.45 ± 0.095		
YQLNDRNVTKGDIVRML [SMC3]	2.72 ± 0.24	3.03 ± 0.17	2.84 ± 0.14	3.02 ± 0.11
QLKMVNERELNVFARLS [RPC82]		2 ± 0.2		2.95 ± 0.12
KIPILAQHESFLRQKIC [RPN9]	1.72 ± 0.046	2.06 ± 0.055	1.85 ± 0.076	2.14 ± 0.038
AMSLYHSPFPFNRTKGK [PRP8]	2.11 ± 0.04	2.08 ± 0.047	1.65 ± 0.07	1.98 ± 0.03
DPEKDSINATALAFGYV [SIN4]	2.16 ± 0.052	1.56 ± 0.058	1.52 ± 0.15	1.82 ± 0.042
